This is an account of results in patent publication US20250137008A1 (UNIVERSITY OF GLASGOW, published 2025).

First the molecules themselves.
T1: KAT1 voltage sensor domain (kVSD) (UniProt Q39128 1-200, limits assumed)
T1 construct: domain: voltage sensor domain (VSD); Nub-X prey in mbSUS; rBiFC partner; also called KAT1 VSD; VSD of KAT1
T1 sequence (looked up): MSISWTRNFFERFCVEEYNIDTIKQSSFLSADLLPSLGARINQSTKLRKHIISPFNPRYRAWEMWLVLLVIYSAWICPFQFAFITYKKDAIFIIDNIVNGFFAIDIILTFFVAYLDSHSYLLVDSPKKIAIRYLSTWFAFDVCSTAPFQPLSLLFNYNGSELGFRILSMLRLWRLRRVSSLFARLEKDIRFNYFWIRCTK

B1: gVSD^NP (other)
chain: MGRLRRRQEIIDHEEEESNDDVSSRRGKLSLAKTFRWLKSSKKRRIKTKGKNKYKYIIKPKNRWYKAWEMFILVWAIYSSLFTPMEFGFFRGLPERLFVLDIVGQIAFLVDIVLQFFVAYRDTQTYRTVYKPTRIAFRYLKSHFLMDFIGCFPWDLIYKASGKHELVRYLLWIRLFRVRKVVEFFQRLEKDTRINYLFTRILK
notes: All negatively-charged amino acids (Asp, Glu) of the N-terminal charged domains replaced with Lys
B2: gVSD^PN (other)
chain: MGRLRRRQEIIDHEEEESNDDVSSDDGDLSLAETFDWLDSSEDDDIETDGDNDYDYIIDPKNRWYKAWEMFILVWAIYSSLFTPMEFGFFRGLPERLFVLDIVGQIAFLVDIVLQFFVAYRDTQTYRTVYKPTRIAFRYLKSHFLMDFIGCFPWDLIYKASGKHELVRYLLWIRLFRVRKVVEFFQRLEKDTRINYLFTRILK
notes: All positively-charged residues of the N-terminal charged domains replaced with negatively-charged residues
B3: gVSD^NP N-terminus (soluble) (other)
chain: MGRLRRRQEIIDHEEEESNDDVSSRRGKLSLAKTFRWLKSSKKRRIKTKGKNKYKYIIKPKNRWYKAWE
notes: also called gVSDNP N-termini
B4: full-length GORK channel (GORK-Cub bait fusion) (other)
chain: MGRLRRRQEIIDHEEEESNDDVSSRRGKLSLAETFRWLDSSEHRRIETDGHNDYKYIIHPKNRWYKAWEMFILVWAIYSSLFTPMEFGFFRGLPERLFVLDIVGQIAFLVDIVLQFFVAYRDTQSYRTVYKPTRIAFRYLKSHFLMDFIGCFPWDLIYKASGKHELVRYLLWIRLFRVRKVVEFFQRLEKDTRINYLFTRILKLLFVEVYCTHTAACIFYYLATTLPPEQEGYTWIGSLKLGDYSYENFREIDLWKRYTTALYFAIVTMATVGYGDIHAVNLREMIFVMIYVSFDMVLGAYLIGNVTALIVKGSNTERFRDKMNDLISFMNRKKLGRDLRSQITGHVRLQYDSHYTDTVMLQDIPASIRAKIAQLLYLPYIKKVPLFKGCSTEFINQIVIRLHEEYFLPGEVITEQGNVVDHLYFVCEGLLEALVTKTDGSEESVTLLGPHTSFGDISIICNISQPFTVRVCELCHLLRLDKQSFSNILEIYFHDGRTILNNIMEEKESNDRIKKLESDIVIHIGKQEAELALKVNSAAFQGDFYQLKSLIRSGADPNKTDYDGRSPLHLAACRGYEDITLFLIQEGVDVNLKDKFGHTPLFEAVKAGQEGVIGLLVKEGASFNLEDSGNFLCTTVAKGDSDFLKRLLSSGMNPNSEDYDHRTPLHVAASEGLFLMAKMLVEAGASVISKDRWGNSPLDEARLCGNKKLIKLLEDVKNAQSSIYPSSLRELQEERIERRKCTVFPFHPQEAKEERSRKHGVVVWVPSNLEKLIVTAAKELGLSDGASFVLLSEDQGRITDIDMISDGHKLYMISDTTDQT
notes: Full-length channel expressed in yeast as a Cub bait fusion (mbSUS) and in vivo as an rBiFC partner; also called full-length GORK channel Y-Cub fusion; Guard cell Outward Rectifying Potassium (K+) channel
B5: kVSD N-terminus (soluble) (other, UniProt Q39128 1-63, looked up)
chain: MSISWTRNFFERFCVEEYNIDTIKQSSFLSADLLPSLGARINQSTKLRKHIISPFNPRYRAWE
notes: domain: cytosolic N-terminus; Gel filtration construct; also called kVSD N-termini; KAT1 N-terminus

The target of series [1] is B4. The series is described as follows: rBiFC in vivo, confocal imaging.
In series [2] the target is B4. The series is described as follows: mbSUS, GORK-Cub bait.
Series [3] concerns the molecule itself. Description: gel filtration of soluble N-termini (self-association). In general terms: Size exclusion chromatography separates by hydrodynamic size, large species first.
Series [4] concerns the target T1, KAT1 voltage sensor domain (kVSD). Description: mbSUS, GORK-Cub bait.
The next series deals with T2, full-length KAT1 (UniProt Q39128 1-677, limits assumed).
T2 construct: whole, on cells; Nub-X prey in mbSUS in yeast
Description: mbSUS, GORK-Cub bait.

On to B1, for which the binding result in series [1] was “no binding”. Turning to B2, the binding result in series [2] was “no binding”.

Turning to B3, in series [3], the binding result was “no binding”. B4: the binding result (in series [4]; in the series with full-length KAT1) was “no binding” each time.

In the case of B5, in series [3], the binding result is listed as “no binding”.
